Assay results published in paper PMC5871715.
Like-named read-outs stand apart in the source and are kept apart here.

How the values were obtained:
[1] = target: full-length wild-type rat DCC on the cell surface (UniProt Q63155); experiment: cell-binding assay; details: n = 100 for each group; parent: est. 49; read off a plot
Netrin-1 (Homo sapiens) [2] = target: Netrin-1 (Homo sapiens) (UniProt O95631); details: cited from earlier work
Netrin-1 (Homo sapiens) [3] = target: Netrin-1 (Homo sapiens) (UniProt O95631); details: cited from earlier work; remark: listed apart in the source

full-length wild-type rat DCC on the cell surface, sequence (Q63155 26-1445): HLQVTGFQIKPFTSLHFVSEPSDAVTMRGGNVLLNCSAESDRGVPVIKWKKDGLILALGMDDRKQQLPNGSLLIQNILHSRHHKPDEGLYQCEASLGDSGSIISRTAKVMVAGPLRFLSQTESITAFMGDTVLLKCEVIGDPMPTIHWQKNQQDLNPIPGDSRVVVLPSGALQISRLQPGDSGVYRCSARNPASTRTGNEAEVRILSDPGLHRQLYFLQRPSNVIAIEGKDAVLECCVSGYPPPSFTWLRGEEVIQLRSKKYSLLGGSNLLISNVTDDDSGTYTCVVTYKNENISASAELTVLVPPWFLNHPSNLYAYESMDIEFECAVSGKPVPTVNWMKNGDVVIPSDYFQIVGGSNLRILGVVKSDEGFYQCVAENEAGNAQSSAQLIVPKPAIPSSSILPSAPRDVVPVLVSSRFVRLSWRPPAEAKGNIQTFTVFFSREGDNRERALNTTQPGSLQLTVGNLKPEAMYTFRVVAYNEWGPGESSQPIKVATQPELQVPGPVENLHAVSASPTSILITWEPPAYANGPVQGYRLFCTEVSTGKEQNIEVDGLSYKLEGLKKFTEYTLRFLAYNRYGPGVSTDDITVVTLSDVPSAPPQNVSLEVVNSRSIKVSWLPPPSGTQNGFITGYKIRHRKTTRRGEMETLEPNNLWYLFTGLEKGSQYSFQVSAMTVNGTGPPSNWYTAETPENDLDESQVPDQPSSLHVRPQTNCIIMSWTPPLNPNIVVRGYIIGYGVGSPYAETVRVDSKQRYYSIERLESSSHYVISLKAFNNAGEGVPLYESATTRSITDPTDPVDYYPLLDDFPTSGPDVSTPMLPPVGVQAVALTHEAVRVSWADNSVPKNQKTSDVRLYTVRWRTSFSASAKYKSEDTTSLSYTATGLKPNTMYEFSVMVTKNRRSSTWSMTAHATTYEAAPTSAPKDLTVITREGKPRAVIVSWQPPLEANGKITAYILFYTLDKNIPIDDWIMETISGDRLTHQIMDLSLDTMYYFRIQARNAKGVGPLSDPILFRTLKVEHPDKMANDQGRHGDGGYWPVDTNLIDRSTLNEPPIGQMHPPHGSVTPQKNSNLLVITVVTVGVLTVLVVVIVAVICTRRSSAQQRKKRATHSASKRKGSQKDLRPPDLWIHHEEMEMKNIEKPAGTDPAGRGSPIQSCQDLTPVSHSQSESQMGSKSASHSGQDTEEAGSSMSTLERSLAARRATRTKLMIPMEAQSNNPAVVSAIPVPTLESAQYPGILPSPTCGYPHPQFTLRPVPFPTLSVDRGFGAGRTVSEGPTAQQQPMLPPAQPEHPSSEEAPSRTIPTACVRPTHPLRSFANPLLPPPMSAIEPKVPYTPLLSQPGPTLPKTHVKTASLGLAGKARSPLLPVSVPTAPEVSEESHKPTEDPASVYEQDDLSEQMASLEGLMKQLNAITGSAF
DCC Fn5, sequence (P43146 846-942): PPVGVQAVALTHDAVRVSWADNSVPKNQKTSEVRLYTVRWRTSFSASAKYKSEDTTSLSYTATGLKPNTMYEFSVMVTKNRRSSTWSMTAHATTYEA

response (% positive binding) [1] | Substance | other results
6 | wild-type rDraxin-Flag R282D | –
– | Draxin (from UniProt Q8NBI3) | Kd (Netrin-1 (Homo sapiens) [2]): 10 nM
3 | wild-type rDraxin-Flag R322A | –
59 | wild-type rDraxin-Flag R282A | –
– | DCC Fn5 (from UniProt P43146) | Kd (Netrin-1 (Homo sapiens) [3]): 5000 nM
10 | wild-type rDraxin-Flag R322D | –
